Substrate: CC(C)=CCC/C(C)=C/CC/C(C)=C/CO[P@@](=O)(O)OP(=O)(O)O
Experiment: purified protein
Assay type: biochemical, Streptomyces avermitilis
Details: MgCl2; labelled compound ([1-3H]FPP)

B1: SAV_76 (avermitilol synthase) (Streptomyces avermitilis MA-4680 = NBRC 14893) (protein)
chain: MPQDIDFGLPAPAGISPGLEATRRHNLGWVRRLGLVGDGPSLAWYTSWDMPRLAACGFPHARGAALDLCADAMAFFFVFDDQFDGPLGRDPARAARVCRRLTGIVHGAGPGPGADACSAAFADVWARSTDGAHPGWVARTAHEWEYYFAAQAHEAINRLRGTPGDMESYLQVRRGIAGTDLPLSLGERAAGITVPAAAFHSPQLRIMREAAIDVTLMCNDVYSLEKEEARGDMDNLVLVIEHARRCTRDEAVTAARGEVARRVIRFEQLAREVPALCAQLGLSAVERAHVDTYLGVMEAWMSGYHAWQTQTRRYTGAPHVLPSTGPGYFDEVLPT
Km: 1.06 ± 0.11 µM
kcat: 0.040 ± 0.001 s⁻¹
